Assay results published in the DeepSol protein solubility set.

Experiment: soluble on expression in E. coli; label from the status in PepcDB or PDB records

Row | Sequence | soluble on expression in E. coli
1 | MGSDKIHHHHHHMNPPPFRLFLAIRSLHKGGAERQMVELAKGLDKERFALTLCTLYGGGELERELKESGVEIFCLHKRGRSDFSFLRRYRTLIQEQNPKAIYSFLPEMNLFSLMASRFLKRSPKILWGFRSSDMDVKSYGWQSRLYYAAQKLLSPFASKIITNSHHSLAYHKHIGYCMKRAQVIHNGIDTKRFSPSLELRESFRQRYHLKDKIAIGIAARMDIAKGYPYLAKAAKIILSRYPKVLFFAAGEIDPLLQKECLEILGQEGERFIWLGGVERMEEVYNGWDILVSSSLTESFSNSIAEGMACALAPIATDVGDTSVILGEVGTLIPPKDSEMLAQKLALMIESDFKTEGERARERIVTLFSLEAMIQNSTKAILTCAES | not soluble
2 | MGHHHHHHSHMCPRCGKQFNHSSNLNRHMNVHRGVKSHSCGICGKCFTQKSTLHDHLNLHSGARPYRCSYCD | soluble
3 | MNYRIIPVTAFSQNCSLIWCEQTRLAALVDPGGDAEKIKQEVDDSGLTLMQILLTHGHLDHVGAAAELAQHYGVPVFGPEKEDEFWLQGLPAQSRMFGLEECQPLTPDRWLNEGDTISIGNVTLQVLHCPGHTPGHVVFFDDRAKLLISGDVIFKGGVGRSDFPRGDHNQLISSIKDKLLPLGDDVIFIPGHGPLSTLGYERLHNPFLQDEMPVW | soluble
4 | GPGSMQEEVTEHKYNIVFSRDPVPSGLSEEQYYPMRLSNGSAYLCVLPDITVEEKKTLQAEDSELDVPLSLEHVAVVNRALKNMCYTMEESWWTYRLCWGSGVEQFHRSAVAGDSKSNAPKQMKEDPHFVLGVAPPADVLDLRYGVNTKGLRYIYTIYSDGLTCDLTQLPRTTEVQLYCAREGEGNSPTMRVREAEVCRYIVSLTAKEVCLLGLKEIQQRYGVITCHETKPTNTVDWNNKQQG | not soluble
5 | MAGKQITLASLPIGKKARVKSLTLDGTIRRRIMDLGLVSDTIVEALQKSPSGDPTAYHIRGAVIALRSEEASKIMVEVN | not soluble
6 | MGSDKIHHHHHHMSRAITRAQLDKLVRSITKFYPQKYADKSWDNTGLLIDCSTAQVTTADANAKTKVLLTVDLTKSVAQEAVDANCNVIVAYHPFIFPSWNRLSPHTNPQHETAIKLIQYGISVYCPHTAVDAARGGVNDWLVRGLNNGENVAKSYALETVSGETDDLIGYGRFVEFNKDISLEQIVKNVKRVLRVPYVQVASLAAPSAWNQLKIKKVAVCAGSGSGVFKQLKEDVDLYYTGEMSHHEVLKWKEMGKTVIVCNHSNTERGFLQDVMKGLLQDEGHEVVVSKMDCDPLTVA | not soluble
7 | MSLCELSYLNAVVMLKAQRGGNSGLYFGSMTTFITSGGLEISPAGAHIVHAESPEGELLFVSSASQYGEGNAIRGGVPIIAPWFGGLLGLDPAHGWAKRSAWDVTEHDGQIHAEYGRDGLLLDIRANSTKNGFEITLRAYNDTDEARTVQLAFHPYFKVDDVEKIEVRGLDGVDILNRLNNEVETQDGPVTFDGEFDRIALGTPVVRIFDTDRIITIEGDGHDSTVVWNPGESRASTVADIGEGEWRDFVCVEPALLGADQKGVRVAPGQSVTVGMQVSVEKRAEGHHHHHH | soluble
8 | MAPLGASPRLVLLFSGKRKSGKDFVTERLKSRLGGNICALLRLSGPLKEEYAREHGLDFQRLLDASTYKETYRRDMICWGEQKRQADPGFFCRKIVEGVSQPIWLVSDTRRTSDIQWFQEAYGAVIQTVRVVASEQSRQQRGWVFTLGVDDAESECGLDNFGNFDWVIENHGDEQCLEDQLEHLLGFIQAKL | soluble
9 | GSDSAITLWQFLLQLLQKPQNKHMICWTSNDGQFKLLQAEEVARLWGIRKNKPNMNYDKLSRALRYYYVKNIIKKVNGQKFVYKFVSYPEILNMDPMTVGRIEGDCESLNFSEVSSSSKDVENGGKDKPPQPGAKTSSRNDYIHSGLYSSFTLNSLN | soluble
10 | MSLTDNLVRVVCVSDTHNTKPNLPDGDILIHAGDLTESGTKEELEKQIYWLDSQPHRYKIVIAGNHETFLDRNYHSHHGNERVTMDWKSLIYLENTSAILDLGAGHQLKVFGSPYTPKHGNGAFQYPRTDTTTWEEIPKDTDLLVTHGPPKAHLDLGHLGCRVLRQALWEMESRPLLHVFGHIHGGYGKEEGHHHHHH | soluble
11 | MKCQKDDPICHLRDDMQDGDNSVNRTVSHLFQLTLTILTRVYSNLNEISLVCQSWNLHAESSGIYKIPQKVQISLLKTFETNREAKSKNLLDPVLLDQFANQSIRAHSLLLLPYSTTRYKTWTGKTFSKHNLIDEFVGKSFECATESFCPDPCCSGIPSVVRSSSKYAPLCKMNSCQKASTCIVKHFENDDLSKLRLNQFNVNCGCEEPGTIYRPDIGRCVHHNPCTKQSLCRDFGQECVNTASGYKCVCQLGYFRNGSNSCAPLKFSAPVYHGFALSEEMDEL | not soluble
12 | MQQEHRECIEQCYECAAACDICASSCLREDNVEMMKHCIQLDMQCAAICRLAAQFMALESEYSQKLCRLCADICKACAEECARHDHDHCQNCARACSQCADACLKMAALEHHHHHH | not soluble
13 | MGSDKIHHHHHHMSLEKERIEKEHIEEMNQAKLRFFTNVSHEFRTPLTLIISQVELMLQKNTIPPSLHNSIFRIRKHAQQMKLLISELLDFRKFDQNYIQLKLSEQSLNTFLEEVYLSFSAYASQKSISYHLKLLEQDISIWIDDWQMRKVLFNLLSNAFKHVPDKGEISILTSTTPDQVVIAVKDSGNGISKEEQERIFDRFYQADNRNKAIHVGTGIGLALTKSIIQLHHGTIEVESELNEGSCFIVKLPKTRDCFEKDTEVVFLESPEKEPMVQENTIPDENFMKKDDSTFETPLIDEREGKRKVLLVEDNVELLQVLKEIFSSLYQVVTAANGEEGLKQAFAEVPDLIVSDVMMPVMTGTEMCLKIKNNINLCHIPVVLLTALDTVDQNIEGLRRGADDYITKPFNAKILITRCNNLIRNRLLMQSRFAKDQILEINLLAANPIDKGFLDRVIKVVDKHIDNEDFDIGMLCQELGMGRTLLHTKFKALTGMTPNEFILNHRLKIASLMLKNEPYLQVAEISDRLGFGSPRYFSRCFKNQYNVTPMEYRKGAKQENLK | not soluble
14 | MGSDKIHHHHHHMNVLITGMNGTVAPVLADVFRSHHYDITAWDRSVVSTTDSAVMEAFIDRVQPDLLLHIGMGPAEFAETLARLSFERNIPFLFTSTASVYSDEQKGPHDPAIVPAATDEYGAYKRTCERLIQAVNPDAYIVRIGWQIGQAAGSNNMIDYLERHAIAGPIPASTQWYPSCAFLEDTAQTLYTIVTTYTPGLYLANGNASHSFFDIVTALNILHGSKWHITEDNSMTRDDRMTDSRVVIRPISEHLSFVH | not soluble
15 | DQALSGQLRIGASDTIGNQVAPYLLSEFRQQTNHRSQSLFISNSAQICDMLTDYELDIALIEGKTLHPELQSTQFSEDEMCVICAPDYPAAHEGPVNLTELENSEWILREAGSGSREFFMRVVAPRLEHWHEAFQLNTTEAL | not soluble
16 | MGSDKIHHHHHHMIGQSLFIRGARGVTLTPSGERYFQDVTTILHNLMLATEKAADKSPKDSLYIHSSPSFGLLWLLPRLESFKEKFPMIQVNLSCSYENLHFTRDKIDIDIRHGLPNWTGVEIRTIRNEKLEVLASPKLLERSPVHKPQDLLKKELILSRSTLVTWPQWFAHQGLSIPEFPYTLSFDRSYMSLEAATHGLGFVLESNLLTQNYLESGKLVRVFADELSIPISAHHLVYPRTHQFIPKIELFLNWIHDELAG | not soluble
17 | MAISDWPEAERPREKLIEKGAAALSDAELLAIFLRTGITGVSAVELARKLLTHFGSLTKLCAASLHEFSELPGMGPAKFAQLQAVMEMAKRALAEELKNGDIMDSPQSVRNYLCLSLKGKPYEVFVGIFLDARHRTIVTEELFNGTLTQASVYPREVVKRALYHNAAAMIFAHNHPSGIAEPSTADEILTQSLKQALALVDVKVLDHFVIGSSEVVSFAERGLI | not soluble
18 | MGSDKIHHHHHHMKDVQNEKDPRMVPLKKVGIKDLHWPLKVILKEDGYQSTVAQISCSVDLHREKRGIHMSRFIEVLNKLEVITPQIFEEILDDLIEIMEAKRAHLEIHFPYFIWKESPVSRKKSPLKVDCFVEAEKEKNFSFKIGVRTPVHTLCPCSKEISDYGAHNQRAFVEITVKTRKFIWFEDLVEIAEKNASSPLYTLLKRPDEKFVTEKAYENPRFVEDVARDVALELEKDPRITWYRVYVESMESIHNHNAFACVEKGDFVLEG | not soluble
